Experimental data as given in US7378503 (dated 2008).

Experiments:
[1] = molecular target: IGF-IR extracellular domain (human, UniProt P08069); experiment: SPR
[2] = molecular target: rat IGF-IR (rat, UniProt P24062); experiment: other, immunoprecipitation
[3] = molecular target: mouse IGF-IR (mouse, UniProt Q60751); experiment: other, immunoprecipitation
Chain of mouse IGF-IR (Q60751 31-936): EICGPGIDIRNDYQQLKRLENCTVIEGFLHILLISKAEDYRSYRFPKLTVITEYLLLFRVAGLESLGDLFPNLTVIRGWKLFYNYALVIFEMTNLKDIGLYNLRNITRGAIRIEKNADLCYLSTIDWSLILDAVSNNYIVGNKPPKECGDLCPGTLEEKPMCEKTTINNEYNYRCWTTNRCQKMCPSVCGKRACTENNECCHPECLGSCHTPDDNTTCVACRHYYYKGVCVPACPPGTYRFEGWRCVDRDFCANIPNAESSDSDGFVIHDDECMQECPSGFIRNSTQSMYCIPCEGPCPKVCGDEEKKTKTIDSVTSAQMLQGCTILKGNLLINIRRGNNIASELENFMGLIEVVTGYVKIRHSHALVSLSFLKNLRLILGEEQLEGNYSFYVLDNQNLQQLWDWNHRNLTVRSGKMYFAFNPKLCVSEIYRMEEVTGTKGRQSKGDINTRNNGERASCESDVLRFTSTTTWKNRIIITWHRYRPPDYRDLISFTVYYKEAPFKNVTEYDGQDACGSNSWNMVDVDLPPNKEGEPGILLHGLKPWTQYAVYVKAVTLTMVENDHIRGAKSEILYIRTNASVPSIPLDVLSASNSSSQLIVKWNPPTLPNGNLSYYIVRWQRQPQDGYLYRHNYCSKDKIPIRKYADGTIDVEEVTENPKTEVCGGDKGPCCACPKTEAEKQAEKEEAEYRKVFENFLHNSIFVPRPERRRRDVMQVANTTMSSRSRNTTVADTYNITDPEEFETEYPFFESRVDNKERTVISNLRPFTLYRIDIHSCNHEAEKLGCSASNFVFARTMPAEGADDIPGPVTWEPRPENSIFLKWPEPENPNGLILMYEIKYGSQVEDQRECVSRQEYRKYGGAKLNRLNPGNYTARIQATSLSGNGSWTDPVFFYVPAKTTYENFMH

Chain of rat IGF-IR (P24062 31-936): as the sequence (Q60751 31-936) above, with D271G, Y629F, M714L counted along it

| Binder | Kd [1] | binding result [2] | binding result [3] |
| --- | --- | --- | --- |
| Antibody 23 (antibody, V domains shown) VH: EVQLVQSGGGLVHPGGSLRLSCAGSGFTFSNYAMYWVRQAPGKGLEWVSAIGSGGGTYYADSVKGRFTISRDNAKNSLYLQMNSLRAEDMAVYHCARAPNWGSEAFDIWGQGTMVTVSS VL: DIQMTQSPSSLSASVGDRVTITCRASQGISSWLAWYQQKPEKAPKSLIYAASSLQSGVPSRFSGSGSGTDFTLTISSLQPEDFATYYCQQYNSYPITFGQGTRLEIK | 0.194 nM | – | – |
| Antibody 8 (antibody, V domains shown) VH: EVQLVQSGGGLVHPGGSLRLSCAGSGFTFRSYAMYWVRQAPGKGLEWVSAIGSGGGTYYADSVKGRFTISRDNAKNSLYLQMNSLRAEDMAVYYCARAPNWGSDAFDIWGQGTMVTVSS VL: DIQMTQSPSSLSASVGDRVTITCRASQGISSWLAWYQQKPEKAPKSLIYAASSLQSGVPSRFSGSGSGTDFTLTISSLQPEDFATYYCQQYNSYPPTFGPGTKVDIK | 2.01 nM | – | – |
| Antibody 1A (antibody, V domains shown) VH: EVQLVQSGGGLVHPGGSLRLSCAGSGFTFRNYAMYWVRQAPGKGLEWVSAIGSGGGTYYADSVKGRFTISRDNAKNSLYLQMNSLRAEDMAVYYCARAPNWGSDAFDIWGQGTMVTVSS VL: DIQMTQSPSSLSASVGDRVTITCRASQGISSWLAWYQQKPEKAPKSLIYAASSLQSGVPSRFSGSGSGTDFTLTISSLQPEDFATYYCQQYNSYPPTFGPGTKVDIK | 0.397 nM | no binding | no binding |
